Assay results as given in patent publication US5747447A, “Stable polypeptide composition” (COR Therapeutics, priority 1995, dated 1998).

Legend:
M21 melanoma cells = assay: M21 melanoma cell adhesion to vitronectin-coated plates; assay type: cell-based
Protocol: M21 melanoma cells were labelled with ^35 S-methionine, and then added to vitronectin-coated plates in the presence of the indicated concentrations of purified snake venom peptides. Cell attachment was measured by solubilizing the cells remaining after an incubation and wash, as previously describe.

[1] = biological target: ADP-induced human platelet aggregation (Homo sapiens, UniProt P05106+P08514); assay: standard aggregation inhibition assay (ADP-induced human platelet aggregation); assay type: cell-based
Source text: 2. Standard assays directly applied to platelet aggregation, such as those described by Gann, Z.-R., et al., J Biol Chem (1988) 263:19827-19832; Huang, T. F., et al., J Biol Chem (1987) 262:16157-16163; Biochemistry (1989) 28:661-666, cited above and incorporated herein by reference;

vitronectin receptor = vitronectin receptor (Homo sapiens, UniProt P05106+P06756); assay: plate assay, inhibition of vitronectin binding to vitronectin receptor
vitronectin receptor, sequence (P06756 31-889 limits assumed): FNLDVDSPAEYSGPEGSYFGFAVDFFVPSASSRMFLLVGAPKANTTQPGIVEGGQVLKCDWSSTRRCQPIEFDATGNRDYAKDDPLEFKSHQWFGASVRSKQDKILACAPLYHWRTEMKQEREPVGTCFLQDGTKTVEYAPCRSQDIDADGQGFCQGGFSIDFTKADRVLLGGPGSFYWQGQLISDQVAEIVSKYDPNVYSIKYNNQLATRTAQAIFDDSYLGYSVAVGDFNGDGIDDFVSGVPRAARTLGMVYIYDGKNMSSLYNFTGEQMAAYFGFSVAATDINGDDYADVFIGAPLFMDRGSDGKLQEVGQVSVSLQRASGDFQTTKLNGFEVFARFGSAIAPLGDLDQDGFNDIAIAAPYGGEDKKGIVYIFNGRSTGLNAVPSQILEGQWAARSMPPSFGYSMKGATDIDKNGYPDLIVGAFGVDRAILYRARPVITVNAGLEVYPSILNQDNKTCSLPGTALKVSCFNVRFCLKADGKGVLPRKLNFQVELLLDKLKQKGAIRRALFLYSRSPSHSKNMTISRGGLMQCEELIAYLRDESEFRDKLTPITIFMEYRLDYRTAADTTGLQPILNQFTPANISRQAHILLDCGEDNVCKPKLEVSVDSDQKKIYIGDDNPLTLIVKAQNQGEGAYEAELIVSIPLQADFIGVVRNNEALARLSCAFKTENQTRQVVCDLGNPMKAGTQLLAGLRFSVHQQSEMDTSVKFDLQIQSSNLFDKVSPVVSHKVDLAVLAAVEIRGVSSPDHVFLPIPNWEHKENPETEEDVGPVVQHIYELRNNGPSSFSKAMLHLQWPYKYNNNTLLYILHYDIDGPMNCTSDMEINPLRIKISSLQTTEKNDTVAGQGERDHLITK
vitronectin receptor, sequence (P06756 891-1048 limits assumed): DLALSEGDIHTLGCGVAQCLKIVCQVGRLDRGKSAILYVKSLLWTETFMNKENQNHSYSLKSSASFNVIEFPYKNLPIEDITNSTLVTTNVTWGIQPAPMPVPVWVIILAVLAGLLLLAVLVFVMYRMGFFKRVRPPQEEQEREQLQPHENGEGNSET
vitronectin receptor, sequence (P05106 27-788): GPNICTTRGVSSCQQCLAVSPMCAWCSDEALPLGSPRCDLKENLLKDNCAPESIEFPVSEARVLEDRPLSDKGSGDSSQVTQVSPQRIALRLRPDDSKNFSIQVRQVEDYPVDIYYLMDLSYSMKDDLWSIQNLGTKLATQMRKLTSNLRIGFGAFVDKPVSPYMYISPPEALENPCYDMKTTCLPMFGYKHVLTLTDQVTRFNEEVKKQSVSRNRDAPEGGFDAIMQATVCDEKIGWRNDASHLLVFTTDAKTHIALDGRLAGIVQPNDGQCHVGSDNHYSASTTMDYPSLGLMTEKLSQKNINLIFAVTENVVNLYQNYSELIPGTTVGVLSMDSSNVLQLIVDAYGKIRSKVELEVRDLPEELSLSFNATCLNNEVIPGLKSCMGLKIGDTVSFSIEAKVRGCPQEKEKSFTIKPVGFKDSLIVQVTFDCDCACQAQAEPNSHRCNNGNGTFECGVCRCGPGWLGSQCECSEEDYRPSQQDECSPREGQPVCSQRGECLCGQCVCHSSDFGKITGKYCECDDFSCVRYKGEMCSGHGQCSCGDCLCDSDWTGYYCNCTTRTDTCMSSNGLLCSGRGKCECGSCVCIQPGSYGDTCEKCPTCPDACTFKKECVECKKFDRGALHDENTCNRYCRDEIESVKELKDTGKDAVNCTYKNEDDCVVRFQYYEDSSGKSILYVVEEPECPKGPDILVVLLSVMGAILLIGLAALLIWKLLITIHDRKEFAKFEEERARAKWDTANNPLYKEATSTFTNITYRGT
Source text: The PAI assay systems further include characterization of the PAI specificity by binding inhibition assays identical to that above but substituting other adhesive proteins for Fg and other receptors for GP IIb-IIIa. In particular, inhibition of the binding of vitronectin to the vitronectin receptor; fibronectin to the fibronectin receptor; fibronectin to GP IIb-IIIa and fibrinogen and/or vWF to GP IIb-IIIa can be assessed. The adhesive protein and receptors for these assays are available in the art.

B1: barbourin (protein)
peptide: EAGEECDCGSPENPCCDAATCKLRPGAQCADGLCCDQCRFMKKGTVCRVAKGDWNDDTCTGQSADCPRNGLYG
M21 melanoma cells
  M21 cell attachment to vitronectin (in words): Neither barbourin nor Peptide 1 (truncated barbourin) had a significant effect
[1]
  platelet aggregation inhibition activity (in words): potent inhibitors of platelet aggregation

B2: cotiarin (protein)
peptide: EAGEECDCGAPENPCCDAATCKLRPGAQCAEGLCCDQCRFKGAGKICRRARGDNPDDRCTGQSADCPRNRFH
M21 melanoma cells
  M21 cell attachment to vitronectin (in words): very potent in inhibiting cell attachment to vitronectin
Vitronectin receptor
  inhibition of vitronectin binding to the vitronectin receptor (in words): potent inhibitor
